Paper PMC5584161, “Selective compounds enhance osteoblastic activity by targeting HECT domain of ubiquitin ligase Smurf1” (Oncotarget, 2016)

B1: GST-Smurf1 (Smad ubiquitination regulatory factor-1) (enzyme, UniProt Q9HCE7-2 1-731, looked up)
chain: MSNPGTRRNGSSIKIRLTVLCAKNLAKKDFFRLPDPFAKIVVDGSGQCHSTDTVKNTLDPKWNQHYDLYVGKTDSITISVWNHKKIHKKQGAGFLGCVRLLSNAISRLKDTGYQRLDLCKLNPSDTDAVRGQIVVSLQTRDRIGTGGSVVDCRGLLENEGTVYEDSGPGRPLSCFMEEPAPYTDSTGAAAGGGNCRFVESPSQDQRLQAQRLRNPDVRGSLQTPQNRPHGHQSPELPEGYEQRTTVQGQVYFLHTQTGVSTWHDPRIPRDLNSVNCDELGPLPPGWEVRSTVSGRIYFVDHNNRTTQFTDPRLHHIMNHQCQLKEPSQPLPLPSEGSLEDEELPAQRYERDLVQKLKVLRHELSLQQPQAGHCRIEVSREEIFEESYRQIMKMRPKDLKKRLMVKFRGEEGLDYGGVAREWLYLLCHEMLNPYYGLFQYSTDNIYMLQINPDSSINPDHLSYFHFVGRIMGLAVFHGHYINGGFTVPFYKQLLGKPIQLSDLESVDPELHKSLVWILENDITPVLDHTFCVEHNAFGRILQHELKPNGRNVPVTEENKKEYVRLYVNWRFMRGIEAQFLALQKGFNELIPQHLLKPFDQKELELIIGGLDKIDLNDWKSNTRLKHCVADSNIVRWFWQAVETFDEERRARLLQFVTGSTRVPLQGFKALQGSTGAAGPRLFTIHLIDANTDNLPKAHTCFNRIDIPPYESYEKLYEKLLTAVEETCGFAVE
notes: Smurf1, HECT-type ubiquitin ligase; also called GST-tagged Smurf1; source: bacteria-expressed, immobilized on Glutathione-Sepharose 4B beads
B2: UbcH5c (enzyme)
chain: not shown
notes: UbcH5c, ubiquitin-conjugating enzyme (E2) of Smurf1; The methods say the assay is the same as GST-Smurf1 with His-Ub, so a His tag is likely; also called E2; source: prokaryotic expressed, purified

Assays:
Assay in all cases: pull-down; GST fusion immobilized on Glutathione-Sepharose 4B beads, incubated with the partner for 8 h at 4°C; washed with GST-binding buffer (100 mM NaCl, 50 mM NaF, 2 mM EDTA, 1% NP-40); immunoblotting; also run with B06 and B75 where the paper says they had no effect
Details in all cases: both partners purified
His-Ub (ubiquitin) = target: T1, His-Ub (ubiquitin) (UniProt P0CG48 1-76)
T1 construct: ubiquitin, single (mono) ubiquitin; also called mono-Ub; single Ub protein

UbcH7 = target: T2, UbcH7 (UniProt P68036 1-154)
T2 construct: UbcH7, ubiquitin-conjugating enzyme (E2) of Smurf1; The methods say the assay is the same as GST-Smurf1 with His-Ub, so a His tag is likely; also called E2; source: prokaryotic expressed, purified

[1] = target: B1

T2 sequence (P68036 whole entry): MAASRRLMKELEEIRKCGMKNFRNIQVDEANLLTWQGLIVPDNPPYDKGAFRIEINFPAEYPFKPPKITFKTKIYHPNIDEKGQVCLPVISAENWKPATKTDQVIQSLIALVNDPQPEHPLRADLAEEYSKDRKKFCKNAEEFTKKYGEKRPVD

| Binder | binding result (His-Ub (ubiquitin)) | binding result (UbcH7) | binding result [1] |
| --- | --- | --- | --- |
| B1 | binds | binds | – |
| B2 | – | – | binds |
